Here are results for 84 variants from PMC13397619.

The chains are these.
B1: NLV2 TCR alpha chain (CDR3α only) (parent)
chain: AGPMKTSYDKVI
partner: NLVGMVATV

The variants in the experiment derive from B1. Kind of experiment: T-Switch: Jurkat TCRβ−/− cells expressing a CDR3 saturation-mutagenesis library, stained with two peptide-HLA-A*02:01 tetramers (original and novel peptide) plus anti-CD3, FACS-sorted into four gates, gDNA sequenced. The conditions noted are these: with HLA-A*02:01 with peptide … (NLV 2-2, the original bait), tetramers 1 µg/mL, 30 min on ice, DP and SW gates expanded about 10 days between rounds ('two to three rounds of selection' in the Methods), gate SP: higher = more of the variant in the gate that binds the original peptide and not the novel one = retained original binding. Fold enrichment of the CDR3 variant in one FACS gate of a two-tetra, unresolved parent, parent is a CDR3 fragment, scale: fold enrichment, numbering: sequential-on-construct, sequence ….
Take […] (CDR3 as printed); P3E derived by comparing it with the table's wild-type CDR3 AGPMKTSYDKVI: the enrichment worked out at 0.526.
Consider […] (CDR3 as printed); G2K derived by comparing it with the table's wild-type CDR3 AGPMKTSYDKVI, for which the enrichment was determined as 0.
In the case of […] (CDR3 as printed); K10S derived by comparing it with the table's wild-type CDR3 AGPMKTSYDKVI, the enrichment is 0.
With […] (CDR3 as printed); D9Y derived by comparing it with the table's wild-type CDR3 AGPMKTSYDKVI, the enrichment came out at 0.
In the case of […] (CDR3 as printed); M4K derived by comparing it with the table's wild-type CDR3 AGPMKTSYDKVI, the enrichment was 0.788.
The value for […] (CDR3 as printed); K5M derived by comparing it with the table's wild-type CDR3 AGPMKTSYDKVI was 4.77; that for […] (CDR3 as printed); V11G derived by comparing it with the table's wild-type CDR3 AGPMKTSYDKVI was 0; that for […] (CDR3 as printed); I12V derived by comparing it with the table's wild-type CDR3 AGPMKTSYDKVI was 11.6.
In the case of […] (CDR3 as printed); S7C derived by comparing it with the table's wild-type CDR3 AGPMKTSYDKVI, the enrichment came to 0.
Then […] (CDR3 as printed); M4Y derived by comparing it with the table's wild-type CDR3 AGPMKTSYDKVI, with 0.292.
The value for […] (CDR3 as printed); K10G derived by comparing it with the table's wild-type CDR3 AGPMKTSYDKVI was 0; that for […] (CDR3 as printed); I12D derived by comparing it with the table's wild-type CDR3 AGPMKTSYDKVI was 0; that for […] (CDR3 as printed); P3A derived by comparing it with the table's wild-type CDR3 AGPMKTSYDKVI was 0.
Regarding […] (CDR3 as printed); T6V derived by comparing it with the table's wild-type CDR3 AGPMKTSYDKVI, the enrichment turned out to be 22.1.
Regarding […] (CDR3 as printed); S7F derived by comparing it with the table's wild-type CDR3 AGPMKTSYDKVI, the enrichment was determined as 0.
On to […] (CDR3 as printed); A1Y derived by comparing it with the table's wild-type CDR3 AGPMKTSYDKVI, for which the enrichment is 0.416.
As to […] (CDR3 as printed); V11Q derived by comparing it with the table's wild-type CDR3 AGPMKTSYDKVI, the enrichment worked out at 0.
[…] (CDR3 as printed); Y8C derived by comparing it with the table's wild-type CDR3 AGPMKTSYDKVI: the enrichment turned out to be 0.
[…] (CDR3 as printed); T6G derived by comparing it with the table's wild-type CDR3 AGPMKTSYDKVI: the enrichment worked out at 0.
For the variant […] (CDR3 as printed); K5L derived by comparing it with the table's wild-type CDR3 AGPMKTSYDKVI, the enrichment came out at 0.
On to […] (CDR3 as printed); T6C derived by comparing it with the table's wild-type CDR3 AGPMKTSYDKVI, for which the enrichment was 0.
As to […] (CDR3 as printed); V11R derived by comparing it with the table's wild-type CDR3 AGPMKTSYDKVI, the enrichment stood at 0.
As to […] (CDR3 as printed); P3Q derived by comparing it with the table's wild-type CDR3 AGPMKTSYDKVI, the enrichment amounted to 0.
Then […] (CDR3 as printed); T6Y derived by comparing it with the table's wild-type CDR3 AGPMKTSYDKVI, with 0; and […] (CDR3 as printed); V11W derived by comparing it with the table's wild-type CDR3 AGPMKTSYDKVI, with 0; and […] (CDR3 as printed); P3L derived by comparing it with the table's wild-type CDR3 AGPMKTSYDKVI, with 0.
The value for […] (CDR3 as printed); S7D derived by comparing it with the table's wild-type CDR3 AGPMKTSYDKVI was 0; that for […] (CDR3 as printed); P3T derived by comparing it with the table's wild-type CDR3 AGPMKTSYDKVI was 0; that for […] (CDR3 as printed); T6W derived by comparing it with the table's wild-type CDR3 AGPMKTSYDKVI was 0.
Then […] (CDR3 as printed); G2T derived by comparing it with the table's wild-type CDR3 AGPMKTSYDKVI, with 10.1.
[…] (CDR3 as printed); D9W derived by comparing it with the table's wild-type CDR3 AGPMKTSYDKVI: the enrichment amounted to 0.
With […] (CDR3 as printed); D9L derived by comparing it with the table's wild-type CDR3 AGPMKTSYDKVI, the enrichment worked out at 0.
On to […] (CDR3 as printed); D9M derived by comparing it with the table's wild-type CDR3 AGPMKTSYDKVI, for which the enrichment stood at 0.433.
For […] (CDR3 as printed); K5S derived by comparing it with the table's wild-type CDR3 AGPMKTSYDKVI, the enrichment came out at 4.22.
As for […] (CDR3 as printed); T6N derived by comparing it with the table's wild-type CDR3 AGPMKTSYDKVI, the enrichment amounted to 0.
[…] (CDR3 as printed); P3S derived by comparing it with the table's wild-type CDR3 AGPMKTSYDKVI: the enrichment came out at 0.
Then […] (CDR3 as printed); K10Q derived by comparing it with the table's wild-type CDR3 AGPMKTSYDKVI, with 1.98; and […] (CDR3 as printed); M4V derived by comparing it with the table's wild-type CDR3 AGPMKTSYDKVI, with 18.1.
In the case of […] (CDR3 as printed); V11N derived by comparing it with the table's wild-type CDR3 AGPMKTSYDKVI, the enrichment is 0.
As to […] (CDR3 as printed); S7V derived by comparing it with the table's wild-type CDR3 AGPMKTSYDKVI, the enrichment worked out at 0.
Take […] (CDR3 as printed); I12P derived by comparing it with the table's wild-type CDR3 AGPMKTSYDKVI: the enrichment is 0.
Consider […] (CDR3 as printed); D9V derived by comparing it with the table's wild-type CDR3 AGPMKTSYDKVI, for which the enrichment turned out to be 0.
Consider […] (CDR3 as printed); K10C derived by comparing it with the table's wild-type CDR3 AGPMKTSYDKVI, for which the enrichment was 0.162.
Consider […] (CDR3 as printed); V11I derived by comparing it with the table's wild-type CDR3 AGPMKTSYDKVI, for which the enrichment amounted to 5.
For […] (CDR3 as printed); K10E derived by comparing it with the table's wild-type CDR3 AGPMKTSYDKVI, the enrichment amounted to 0.
As for […] (CDR3 as printed); D9A derived by comparing it with the table's wild-type CDR3 AGPMKTSYDKVI, the enrichment is 0.
[…] (CDR3 as printed); P3G derived by comparing it with the table's wild-type CDR3 AGPMKTSYDKVI: the enrichment was determined as 0.
As to […] (CDR3 as printed); K10D derived by comparing it with the table's wild-type CDR3 AGPMKTSYDKVI, the enrichment amounted to 0.
Then […] (CDR3 as printed); Y8H derived by comparing it with the table's wild-type CDR3 AGPMKTSYDKVI, with 0; and […] (CDR3 as printed); M4D derived by comparing it with the table's wild-type CDR3 AGPMKTSYDKVI, with 0.
On to […] (CDR3 as printed); I12G derived by comparing it with the table's wild-type CDR3 AGPMKTSYDKVI, for which the enrichment stood at 0.
As to […] (CDR3 as printed); T6K derived by comparing it with the table's wild-type CDR3 AGPMKTSYDKVI, the enrichment is 0.
Regarding […] (CDR3 as printed); M4I derived by comparing it with the table's wild-type CDR3 AGPMKTSYDKVI, the enrichment is 18.9.
Then […] (CDR3 as printed); K10H derived by comparing it with the table's wild-type CDR3 AGPMKTSYDKVI, with 0.422; and […] (CDR3 as printed); K5I derived by comparing it with the table's wild-type CDR3 AGPMKTSYDKVI, with 3.95; and […] (CDR3 as printed); I12F derived by comparing it with the table's wild-type CDR3 AGPMKTSYDKVI, with 2.21.
Take […] (CDR3 as printed); A1V derived by comparing it with the table's wild-type CDR3 AGPMKTSYDKVI: the enrichment was found to be 0.
[…] (CDR3 as printed); K5Q derived by comparing it with the table's wild-type CDR3 AGPMKTSYDKVI: the enrichment was 7.86.
In the case of […] (CDR3 as printed); D9S derived by comparing it with the table's wild-type CDR3 AGPMKTSYDKVI, the enrichment amounted to 0.
Take […] (CDR3 as printed); K5H derived by comparing it with the table's wild-type CDR3 AGPMKTSYDKVI: the enrichment was 4.24.
Regarding […] (CDR3 as printed); S7A derived by comparing it with the table's wild-type CDR3 AGPMKTSYDKVI, the enrichment worked out at 3.32.
The value for […] (CDR3 as printed); P3D derived by comparing it with the table's wild-type CDR3 AGPMKTSYDKVI was 0.
Consider […] (CDR3 as printed); I12N derived by comparing it with the table's wild-type CDR3 AGPMKTSYDKVI, for which the enrichment turned out to be 0.107.
For […] (CDR3 as printed); V11D derived by comparing it with the table's wild-type CDR3 AGPMKTSYDKVI, the enrichment turned out to be 0.11.
Regarding […] (CDR3 as printed); D9Q derived by comparing it with the table's wild-type CDR3 AGPMKTSYDKVI, the enrichment amounted to 0.
Then […] (CDR3 as printed); V11K derived by comparing it with the table's wild-type CDR3 AGPMKTSYDKVI, with 0; and […] (CDR3 as printed); K10W derived by comparing it with the table's wild-type CDR3 AGPMKTSYDKVI, with 0; and […] (CDR3 as printed); V11F derived by comparing it with the table's wild-type CDR3 AGPMKTSYDKVI, with 0.
Consider […] (CDR3 as printed); T6Q derived by comparing it with the table's wild-type CDR3 AGPMKTSYDKVI, for which the enrichment stood at 0.
[…] (CDR3 as printed); M4F derived by comparing it with the table's wild-type CDR3 AGPMKTSYDKVI: the enrichment worked out at 0.
Consider […] (CDR3 as printed); G2E derived by comparing it with the table's wild-type CDR3 AGPMKTSYDKVI, for which the enrichment is 0.387.
Then […] (CDR3 as printed); D9K derived by comparing it with the table's wild-type CDR3 AGPMKTSYDKVI, with 0.
Regarding […] (CDR3 as printed); I12K derived by comparing it with the table's wild-type CDR3 AGPMKTSYDKVI, the enrichment is 8.2.
For the variant […] (CDR3 as printed); A1R derived by comparing it with the table's wild-type CDR3 AGPMKTSYDKVI, the enrichment is 0.
For […] (CDR3 as printed); T6E derived by comparing it with the table's wild-type CDR3 AGPMKTSYDKVI, the enrichment was determined as 0.
Regarding […] (CDR3 as printed); M4H derived by comparing it with the table's wild-type CDR3 AGPMKTSYDKVI, the enrichment turned out to be 2.65.
With […] (CDR3 as printed); M4L derived by comparing it with the table's wild-type CDR3 AGPMKTSYDKVI, the enrichment amounted to 0.
The value for […] (CDR3 as printed); I12C derived by comparing it with the table's wild-type CDR3 AGPMKTSYDKVI was 0.
Turning to […] (CDR3 as printed); I12Y derived by comparing it with the table's wild-type CDR3 AGPMKTSYDKVI, the enrichment is 0.
In the case of […] (CDR3 as printed); P3V derived by comparing it with the table's wild-type CDR3 AGPMKTSYDKVI, the enrichment stood at 0.124.
For the variant […] (CDR3 as printed); I12A derived by comparing it with the table's wild-type CDR3 AGPMKTSYDKVI, the enrichment is 2.32.
With […] (CDR3 as printed); Y8S derived by comparing it with the table's wild-type CDR3 AGPMKTSYDKVI, the enrichment was 0.
As to […] (CDR3 as printed); S7N derived by comparing it with the table's wild-type CDR3 AGPMKTSYDKVI, the enrichment was found to be 0.
As to […] (CDR3 as printed); D9T derived by comparing it with the table's wild-type CDR3 AGPMKTSYDKVI, the enrichment came to 0.
